Patent US20120244226A1, “TREATMENT COMPOSITION AND METHOD” (DEC INTERNATIONAL NZ LIMITED, priority 2009, published 2012)

Experiments:
[1] = WO 2008/009798, cited from earlier work
[2] = tested on: interleukin-6 (IL-6) produced by LPS activated neutrophils; experiment: IL-6 production by LPS activated neutrophils (ELISA); format: cell-based, rat; conditions: for IL-6 % Inhibition: relative to LPS only control
Description: (§1) The anti-inflammatory properties of the cationic fraction, IDP, and the combination of IDP with chondroitin and glucosamine were determined by measuring their ability to inhibit the production of the inflammatory compounds, tumor necrosis factor-α (TNF-α) and interleukin-6 (IL-6) produced by LPS activated neutrophils. […] Neutrophils were isolated from rat blood and incubated in the presence of LPS. LPS is derived from bacterial cell walls and is used to mimic a 'bacterial infection'. […] Two of these cytokine are TNF-α and IL-6. The concentrations of both cytokines produced by neutrophils exposed to LPS and the various test substances are summarised graphically in FIGS. 1 and 2 respectively. […] Aliquots from each set of triplicates were combined, and duplicates assayed for cytokine concentrations. The plate blank was subtracted from each individual data point. A VersaMax 96-well plate reader was used to colorimetrically assess the production of TNF-α and IL-6 as determined by the ELISA, using Rat TNF-α ELISA kit, R&D Systems, Cat # RTA00, and Rat IL-6 ELISA kit, R&D Systems, Cat # […]. The average cytokine concentration, standard deviation and standard error were calculated for each data set (sample and concentration). Preliminary statistical significance was assessed using independent Student t-tests at α≦0.05.

[3] = tested on: tumor necrosis factor-α (TNF-α) produced by LPS activated neutrophils; experiment: TNF-α production by LPS activated neutrophils (ELISA); format: cell-based, rat; conditions: for TNF-α % Inhibition: relative to LPS only control
Description: as §1

Row | Molecule | anti-inflammatory activity of the composition on its own [1] | anti-inflammatory activity compared with glucosamine and chondroitin sulphate alone ([1]; combined with glucosamine and chondroitin sulphate) | IL-6 ([2]; 1 μg/ml) [pg/mL] | IL-6 % Inhibition ([2]; 1 μg/ml) [%] | IL-6 ([2]; 10 μg/ml) [pg/mL] | IL-6 % Inhibition ([2]; 10 μg/ml) [%] | IL-6 ([2]; 100 μg/ml) [pg/mL] | IL-6 % Inhibition ([2]; 100 μg/ml) [%] | stimulation of IL-6 levels ([2]; highest concentration tested) [%] | effect on IL-6, in words ([2]; lowest concentrations tested) | effect on IL-6, in words ([2]; over the concentrations tested) | TNF-α ([3]; 1 μg/ml) [pg/mL] | TNF-α % Inhibition ([3]; 1 μg/ml) [%] | TNF-α ([3]; 10 μg/ml) [pg/mL] | TNF-α % Inhibition ([3]; 10 μg/ml) [%] | TNF-α ([3]; 100 μg/ml) [pg/mL] | TNF-α % Inhibition ([3]; 100 μg/ml) [%] | stimulation of TNF-α levels ([3]; highest concentration tested) [%] | effect on TNF-α, in words ([3]; lowest concentrations tested) | effect on TNF-α, in words ([3]; over the concentrations tested)
1 | pure lactoferrin (90%): composition 1 of WO 2008/009798: pure lactoferrin (90%) (protein, UniProt P24627 20-708, looked up, 90% pure preparation) Lactotransferrin: APRKNVRWCTISQPEWFKCRRWQWRMKKLGAPSITCVRRAFALECIRAIAEKKADAVTLDGGMVFEAGRDPYKLRPVAAEIYGTKESPQTHYYAVAVVKKGSNFQLDQLQGRKSCHTGLGRSAGWIIPMGILRPYLSWTESLEPLQGAVAKFFSASCVPCIDRQAYPNLCQLCKGEGENQCACSSREPYFGYSGAFKCLQDGAGDVAFVKETTVFENLPEKADRDQYELLCLNNSRAPVDAFKECHLAQVPSHAVVARSVDGKEDLIWKLLSKAQEKFGKNKSRSFQLFGSPPGQRDLLFKDSALGFLRIPSKVDSALYLGSRYLTTLKNLRETAEEVKARYTRVVWCAVGPEEQKKCQQWSQQSGQNVTCATASTTDDCIVLVLKGEADALNLDGGYIYTAGKCGLVPVLAENRKSSKHSSLDCVLRPTEGYLAVAVVKKANEGLTWNSLKDKKSCHTAVDRTAGWNIPMGLIVNQTGSCAFDEFFSQSCAPGADPKSRLCALCAGDDQGLDKCVPNSKEKYYGYTGAFRCLAEDVGDVAFVKNDTVWENTNGESTADWAKNLNREDFRLLCLDGTRKPVTEAQSCHLAVAPNHAVVSRSDRAAHVKQVLLHQQALFGKNGKNCPDKFCLFKSETKNLLFNDNTECLAKLGGRPTYEEYLGTEYVTAIANLKKCSTSPLLEACAFLTR | Neither of these compositions showed significant anti-inflammatory activity | significantly better | – | – | – | – | – | – | – | – | – | – | – | – | – | – | – | – | – | –
2 | Lactoferrin: milk immune defence protein (P24627), tested on its own (protein, UniProt P24627 20-708, looked up) Lactotransferrin: APRKNVRWCTISQPEWFKCRRWQWRMKKLGAPSITCVRRAFALECIRAIAEKKADAVTLDGGMVFEAGRDPYKLRPVAAEIYGTKESPQTHYYAVAVVKKGSNFQLDQLQGRKSCHTGLGRSAGWIIPMGILRPYLSWTESLEPLQGAVAKFFSASCVPCIDRQAYPNLCQLCKGEGENQCACSSREPYFGYSGAFKCLQDGAGDVAFVKETTVFENLPEKADRDQYELLCLNNSRAPVDAFKECHLAQVPSHAVVARSVDGKEDLIWKLLSKAQEKFGKNKSRSFQLFGSPPGQRDLLFKDSALGFLRIPSKVDSALYLGSRYLTTLKNLRETAEEVKARYTRVVWCAVGPEEQKKCQQWSQQSGQNVTCATASTTDDCIVLVLKGEADALNLDGGYIYTAGKCGLVPVLAENRKSSKHSSLDCVLRPTEGYLAVAVVKKANEGLTWNSLKDKKSCHTAVDRTAGWNIPMGLIVNQTGSCAFDEFFSQSCAPGADPKSRLCALCAGDDQGLDKCVPNSKEKYYGYTGAFRCLAEDVGDVAFVKNDTVWENTNGESTADWAKNLNREDFRLLCLDGTRKPVTEAQSCHLAVAPNHAVVSRSDRAAHVKQVLLHQQALFGKNGKNCPDKFCLFKSETKNLLFNDNTECLAKLGGRPTYEEYLGTEYVTAIANLKKCSTSPLLEACAFLTR | – | – | 197.88 | 33.3 | 269.86 | 9.1 | 441.09 | −48.6 | 48 | no statistically significant effect | appeared not to act as anti-inflammatory | 226.19 | 17.9 | 242.58 | 11.9 | 325.95 | −18.4 | 18 | no statistically significant effect | appeared not to act as anti-inflammatory
